Test results taken from patent US20250276092A1 (Regeneron, published 2025).

Legend:
[1] = target: T1, human CD40 expressed on cells (human, UniProt P25942 21-277); experiment: cell-based or functional assay
[2] = target: T2, human CD40 extracellular domain expressed with a C-terminal myc-myc-hexahistidine tag (human); experiment: ELISA, blocks 40 nM hCD40-mmH binding to coated 9His-hCD40L
T2 construct: also called hCD40-MMH; hCD40-mmH
Protocol: In the blocking assay, 9His-hCD40L was passively absorbed at a concentration of 5 μg/mL in PBS on a 96-well microtiter plate overnight at 4° C. […] In a separate 96-well microtiter plate, a fixed amount of 40 nM hCD40-mmH was pre-mixed with one of the following antibodies, at concentrations ranging from 977 pM to 1 μM in PBS+0.5% BSA: (1) anti-CD40×CD40 bispecific antibodies (REGN16431, REGN16432, REGN16634, and REGN16335); (2) parental anti-CD40 mAbs (bivalent antibodies comprising 2 fragment antigen-binding [Fab] arms identical to one of anti-CD40 Fab of anti-CD40×CD40 antibodies); (3) anti-CD40×Irrelevant antibodies (bivalent antibodies that incorporate one Fab arm identical to one of anti-CD40 Fab of anti-CD40×CD40 antibodies and another Fab arm specific to an irrelevant antigen); and (4) human IgG4 with Fc mutation isotype control antibodies (REGN7540 and REGN4513). The fixed concentration of hCD40-mmH was selected to be near the concentration (EC₅₀ value) that generated 50% of the maximal binding to the plate-adhered 9His-hCD40L. After one-hour incubation, the antibody-antigen complexes were transferred to the microtiter plate coated with 9His-hCD40L. After one hour incubation at room temperature, the plates were washed, and plate-bound hCD40-mmH protein was detected with horseradish peroxidase (HRP) conjugated goat anti-c-Myc antibody. The plates were then developed using TMB substrate solution (BD Biosciences) according to the manufacturer's recommended procedure and the absorbance at 450 nm (OD₄₅₀) was measured on a SpectraMax i3× plate reader.
Binding data were analyzed using a sigmoidal (four-parameter logistic) dose-response model with GraphPad Prism™ software. […] The percent blocking of tested antibodies at the highest tested concentration ([…]) was calculated based on the formula shown below: […]

[3] = target: T1, human CD40 expressed on cells; experiment: cell-based or functional assay; remark: listed apart in the source
[4] = target: T1, human CD40 expressed on cells; experiment: cell-based or functional assay; remark: listed apart in the source
[5] = target: T1, human CD40 expressed on cells; experiment: cell-based or functional assay; remark: listed apart in the source
[6] = target: T1, human CD40 expressed on cells; experiment: cell-based or functional assay; remark: listed apart in the source
[7] = target: T1, human CD40 expressed on cells; experiment: cell-based or functional assay; remark: listed apart in the source
[8] = target: T1, human CD40 expressed on cells; experiment: cell-based or functional assay; remark: listed apart in the source
[9] = target: T1, human CD40 expressed on cells; experiment: cell-based or functional assay; remark: listed apart in the source
[10] = target: T1, human CD40 expressed on cells; experiment: cell-based or functional assay; remark: listed apart in the source

T1 sequence (P25942 21-277): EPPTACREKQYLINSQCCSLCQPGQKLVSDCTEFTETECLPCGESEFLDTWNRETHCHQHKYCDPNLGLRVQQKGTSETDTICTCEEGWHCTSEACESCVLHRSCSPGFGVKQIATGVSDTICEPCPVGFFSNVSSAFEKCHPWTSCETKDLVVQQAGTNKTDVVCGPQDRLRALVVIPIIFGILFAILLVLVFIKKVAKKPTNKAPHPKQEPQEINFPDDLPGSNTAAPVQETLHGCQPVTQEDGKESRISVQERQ
T2 sequence (chain, as listed by the source limits assumed): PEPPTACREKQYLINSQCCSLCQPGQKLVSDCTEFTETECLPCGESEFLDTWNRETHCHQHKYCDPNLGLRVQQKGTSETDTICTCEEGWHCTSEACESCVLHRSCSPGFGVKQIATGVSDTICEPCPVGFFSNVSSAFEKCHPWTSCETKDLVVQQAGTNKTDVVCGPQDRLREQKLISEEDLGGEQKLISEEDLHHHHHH

B1: REGN16334 (bispecific antibody, human IgG4 S228P, kappa)
heavy 1: QLQLQESGPGLVRPSETLSLTCSVSGASMNTNNYYWGWIRQPPGKGLEWIGSGYYNGNTYYNPSLKSRVTISVDTSKNQFSLKLNSVTAADTAVYYCARQTPPRIIGSPNIWGQGTMVTVSSASTKGPSVFPLAPCSRSTSESTAALGCLVKDYFPEPVTVSWNSGALTSGVHTFPAVLQSSGLYSLSSVVTVPSSSLGTKTYTCNVDHKPSNTKVDKRVESKYGPPCPPCPAPGGGGPSVFLFPPKPKDTLMISRTPEVTCVVVDVSQEDPEVQFNWYVDGVEVHNAKTKPREEQFNSTYRVVSVLTVLHQDWLNGKEYKCKVSNKGLPSSIEKTISKAKGQPREPQVYTLPPSQEEMTKNQVSLTCLVKGFYPSDIAVEWESNGQPENNYKTTPPVLDSDGSFFLYSRLTVDKSRWQEGNVFSCSVMHEALHNHYTQKSLSLSLGK
heavy 2: EVQLVESGGGLVQPGGSLRLSCAASGFTFGSYGMAWVRQAPGKGLEWVSAISGSGDYTNYADSVKRRFTISRDNSKNTLYLQMSSLRAEDTAVYYCAKEKTGTTGYLYSGMDVWGQGTTVTVSSASTKGPSVFPLAPCSRSTSESTAALGCLVKDYFPEPVTVSWNSGALTSGVHTFPAVLQSSGLYSLSSVVTVPSSSLGTKTYTCNVDHKPSNTKVDKRVESKYGPPCPPCPAPGGGGPSVFLFPPKPKDTLMISRTPEVTCVVVDVSQEDPEVQFNWYVDGVEVHNAKTKPREEQFNSTYRVVSVLTVLHQDWLNGKEYKCKVSNKGLPSSIEKTISKAKGQPREPQVYTLPPSQEEMTKNQVSLTCLVKGFYPSDIAVEWESNGQPENNYKTTPPVLDSDGSFFLYSRLTVDKSRWQEGNVFSCSVMHEALHNRFTQKSLSLSPGK
light: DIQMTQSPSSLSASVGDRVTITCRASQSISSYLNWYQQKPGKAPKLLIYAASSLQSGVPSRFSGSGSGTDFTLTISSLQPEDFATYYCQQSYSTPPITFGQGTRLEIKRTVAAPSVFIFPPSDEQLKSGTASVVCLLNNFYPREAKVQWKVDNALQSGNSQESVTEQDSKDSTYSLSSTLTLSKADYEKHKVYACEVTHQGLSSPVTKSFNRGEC
notes: also called REGN16634 [sic]
- % max blockade relative to no mAb, TNFa, B cells, donor 1 [1]: 44%
- % max blockade relative to no mAb, TNFa, B cells, donor 2 [1]: 63.5%
- % max blockade relative to no mAb, TNFa, B cells, donor 3 [1]: 68.5%
- % Blocking at highest mAb concentration [2]: 98%
- % max blockade relative to no mAb, IL-6, assay #2, donor 1 [3]: 88.9%
- % max blockade relative to no mAb, IL-6, assay #2, donor 2 [3]: 89.2%
- % max blockade relative to no mAb, IL-10, B cells, donor 1 [4]: 74.2%
- % max blockade relative to no mAb, IL-10, B cells, donor 2 [4]: 91.4%
- % max blockade relative to no mAb, IL-10, B cells, donor 3 [4]: 92.4%
- IC50, NFkB-luc Raji, 900 pM hCD40L [5]: 5.76e-11 M
- Max % activation, NFkB-luc Raji, no ligand [5]: 13%
- Max % inhibition, NFkB-luc Raji, 900 pM hCD40L [5]: 113%
- % max blockade relative to no mAb, IL-6, B cells, donor 1 [6]: 84.5%
- % max blockade relative to no mAb, IL-6, B cells, donor 2 [6]: 92%
- % max blockade relative to no mAb, IL-6, B cells, donor 3 [6]: 92%
- % max blockade relative to no mAb, IL-10, assay #2, donor 1 [7]: 87.7%
- % max blockade relative to no mAb, IL-10, assay #2, donor 2 [7]: 89.9%
- IC50, NFkB-luc THP-1, 10 nM hCD40L [8]: 0.553 nM
- Max % activation, NFkB-luc THP-1, no ligand [8]: 1%
- Max % inhibition, NFkB-luc THP-1, 10 nM hCD40L [8]: 98%
- % max blockade relative to no mAb, TNFa, assay #2, donor 1 [9]: 62.8%
- % max blockade relative to no mAb, TNFa, assay #2, donor 2 [9]: 51.1%
- IC50, NFkB-luc Ramos, 500 pM hCD40L [10]: 6.93e-11 M
- Max % activation, NFkB-luc Ramos, no ligand [10]: 6%
- Max % inhibition, NFkB-luc Ramos, 500 pM hCD40L [10]: 91%

B2: REGN17288 (antibody, V domains shown)
VH: QLQLQESGPGLVRPSETLSLTCSVSGASMNTNNYYWGWIRQPPGKGLEWIGSGYYNGNTYYNPSLKSRVTISVDTSKNQFSLKLNSVTAADTAVYYCARQTPPRIIGSPNIWGQGTMVTVSS
VL: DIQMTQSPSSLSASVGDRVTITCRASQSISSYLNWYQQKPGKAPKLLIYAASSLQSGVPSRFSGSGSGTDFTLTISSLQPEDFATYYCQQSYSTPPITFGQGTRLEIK
- % Blocking at highest mAb concentration [2]: 94%
- IC50, NFkB-luc Raji, 900 pM hCD40L [5]: 4.28e-11 M
- Max % activation, NFkB-luc Raji, no ligand [5]: 14%
- Max % inhibition, NFkB-luc Raji, 900 pM hCD40L [5]: 90%
- IC50, NFkB-luc THP-1, 10 nM hCD40L [8]: 0.334 nM
- Max % activation, NFkB-luc THP-1, no ligand [8]: 0%
- Max % inhibition, NFkB-luc THP-1, 10 nM hCD40L [8]: 98%
- IC50, NFkB-luc Ramos, 500 pM hCD40L [10]: 4.07e-11 M
- Max % activation, NFkB-luc Ramos, no ligand [10]: 6%
- Max % inhibition, NFkB-luc Ramos, 500 pM hCD40L [10]: 88%

B3: REGN17544 (antibody, V domains shown)
VH: EVQLVESGGGLVQPGGSLRLSCAASGFTFGSYGMAWVRQAPGKGLEWVSAISGSGDYTNYADSVKRRFTISRDNSKNTLYLQMSSLRAEDTAVYYCAKEKTGTTGYLYSGMDVWGQGTTVTVSS
VL: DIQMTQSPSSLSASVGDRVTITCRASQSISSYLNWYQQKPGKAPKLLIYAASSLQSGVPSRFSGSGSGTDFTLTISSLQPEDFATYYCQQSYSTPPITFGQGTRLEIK
- % Blocking at highest mAb concentration [2]: 91%
- IC50, NFkB-luc Raji, 900 pM hCD40L [5]: 1.35e-10 M
- Max % activation, NFkB-luc Raji, no ligand [5]: 11%
- Max % inhibition, NFkB-luc Raji, 900 pM hCD40L [5]: 81%
- IC50, NFkB-luc THP-1, 10 nM hCD40L [8]: 1.13 nM
- Max % activation, NFkB-luc THP-1, no ligand [8]: 4%
- Max % inhibition, NFkB-luc THP-1, 10 nM hCD40L [8]: 96%
- IC50, NFkB-luc Ramos, 500 pM hCD40L [10]: 1.89e-10 M
- Max % activation, NFkB-luc Ramos, no ligand [10]: 10%
- Max % inhibition, NFkB-luc Ramos, 500 pM hCD40L [10]: 77%

B4: REGN17289 (antibody, V domains shown)
VH: EVQLVESGGGLVQPGGSLRLSCAASGFTFSSYAMNWVRQAPGKGLEWVSIISGTIGKTYYADSVKGRFTISRDNSKNTLYLQMNSLRGEDTAVYYCAKDTERDITGSPFDYWGQGTLVTVSS
VL: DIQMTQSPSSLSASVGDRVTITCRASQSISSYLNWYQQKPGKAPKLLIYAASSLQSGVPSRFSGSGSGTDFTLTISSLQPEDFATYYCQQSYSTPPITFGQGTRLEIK
- IC50, NFkB-luc Raji, 900 pM hCD40L [5]: 2.72e-11 M
- Max % activation, NFkB-luc Raji, no ligand [5]: 10%
- Max % inhibition, NFkB-luc Raji, 900 pM hCD40L [5]: 55%
- EC50 in the presence of CD40L (potentiation), NFkB-luc THP-1, 10 nM hCD40L [8]: 0.016 nM
- Max % activation, NFkB-luc THP-1, no ligand [8]: 1%
- Max % inhibition, NFkB-luc THP-1, 10 nM hCD40L [8]: -92%
- EC50 in the presence of CD40L (potentiation), NFkB-luc Ramos, 500 pM hCD40L [10]: 7.51e-12 M
- Max % activation, NFkB-luc Ramos, no ligand [10]: 4%
- Max % inhibition, NFkB-luc Ramos, 500 pM hCD40L [10]: -133%

B5: REGN20484 (bispecific antibody, human IgG4 S228P, kappa)
heavy 1: EVQLVESGGGLVQPGGSLRLSCAASGFTFGSYGMAWVRQAPGKGLEWVSAISGSGDYTNYADSVKRRFTISRDNSKNTLYLQMSSLRAEDTAVYYCAKEKTGTTGYLYSGMDVWGQGTTVTVSSASTKGPSVFPLAPCSRSTSESTAALGCLVKDYFPEPVTVSWNSGALTSGVHTFPAVLQSSGLYSLSSVVTVPSSSLGTKTYTCNVDHKPSNTKVDKRVESKYGPPCPPCPAPGGGGPSVFLFPPKPKDTLMISRTPEVTCVVVDVSQEDPEVQFNWYVDGVEVHNAKTKPREEQFNSTYRVVSVLTVLHQDWLNGKEYKCKVSNKGLPSSIEKTISKAKGQPREPQVYTLPPSQEEMTKNQVSLTCLVKGFYPSDIAVEWESNGQPENNYKTTPPVLDSDGSFFLYSRLTVDKSRWQEGNVFSCSVMHEALHNHYTQKSLSLSLGK
heavy 2: EVQLVESGGGLVQPGGSLRLSCAASGFTFSSYAMNWVRQAPGKGLEWVSIISGTIGKTYYADSVKGRFTISRDNSKNTLYLQMNSLRGEDTAVYYCAKDTERDITGSPFDYWGQGTLVTVSSASTKGPSVFPLAPCSRSTSESTAALGCLVKDYFPEPVTVSWNSGALTSGVHTFPAVLQSSGLYSLSSVVTVPSSSLGTKTYTCNVDHKPSNTKVDKRVESKYGPPCPPCPAPGGGGPSVFLFPPKPKDTLMISRTPEVTCVVVDVSQEDPEVQFNWYVDGVEVHNAKTKPREEQFNSTYRVVSVLTVLHQDWLNGKEYKCKVSNKGLPSSIEKTISKAKGQPREPQVYTLPPSQEEMTKNQVSLTCLVKGFYPSDIAVEWESNGQPENNYKTTPPVLDSDGSFFLYSRLTVDKSRWQEGNVFSCSVMHEALHNRFTQKSLSLSPGK
light: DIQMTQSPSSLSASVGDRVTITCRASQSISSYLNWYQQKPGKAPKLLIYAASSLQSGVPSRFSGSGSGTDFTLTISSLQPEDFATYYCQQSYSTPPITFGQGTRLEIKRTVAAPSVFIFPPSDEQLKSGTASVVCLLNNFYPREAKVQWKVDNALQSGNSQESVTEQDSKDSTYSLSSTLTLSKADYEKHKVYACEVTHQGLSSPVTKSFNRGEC
- % max blockade relative to no mAb, IL-6, assay #2, donor 1 [3]: 89%
- % max blockade relative to no mAb, IL-6, assay #2, donor 2 [3]: 88.1%
- % max blockade relative to no mAb, IL-10, assay #2, donor 1 [7]: 87.1%
- % max blockade relative to no mAb, IL-10, assay #2, donor 2 [7]: 90.9%
- % max blockade relative to no mAb, TNFa, assay #2, donor 1 [9]: 61.9%
- % max blockade relative to no mAb, TNFa, assay #2, donor 2 [9]: 52.3%
